Experimental data: PMC2646873 (Biochemistry, 2008)

Target: the molecule itself
Assay: crystal structure

B1: CysM (Rv1336) (enzyme)
chain: MTRYDSLLQALGNTPLVGLQRLSPRWDDGRDGPHVRLWAKLEDRNPTGSIKDRPAVRMIEQAEADGLLRPGATILEPTSGNTGISLAMAARLKGYRLICVMPENTSVERRQLLELYGAQIIFSAAEGGSNTAVATAKELAATNPSWVMLYQYGNPANTDSHYCGTGPELLADLPEITHFVAGLGTTGTLMGTGRFLREHVANVKIVAAEPRYGEGVYALRNMDEGFVPELYDPEILTARYSVGAVDAVRRTRELVHTEGIFAGISTGAVLHAALGVGAGALAAGERADIALVVADAGWKYLSTGAYAGSLDDAETALEGQLWA
stoichiometry N: 2
